Laboratory results published in US20170298331.

Tests used:
TALEN TN8 (Artificial) = assay: cell_activity; conditions: pair TN3/8, 17 bp spacer, preceded by 5'-T; Surveyor assay in DMD myoblasts (up to 12.7% and 6.8% in two lines)
TALEN TN3 (Artificial) = assay: cell_activity; conditions: pair TN3/8, 17 bp spacer, preceded by 5'-T; Surveyor assay in DMD myoblasts (up to 12.7% and 6.8% in two lines)

Sequence	activity (% modified alleles) (TALEN TN8 (Artificial))	activity (% modified alleles) (TALEN TN3 (Artificial))
CCTTAGTAACCACAGGT (double strand) [TN8 half-site, DMD exon 51]	12.7	–
AGCTCCTACTCAGACT (double strand) [TN3 half-site, DMD exon 51]	–	12.7
